Assay results reported in publication PMC4449183, “Structural-Functional Analysis Reveals a Specific Domain Organization in Family GH20 Hexosaminidases” (PLoS ONE, 2015).

T1: Construct A (residues 40–528) of B. bifidum lacto-N-biosidase, GH20b-GH20-α (Bifidobacterium bifidum (strain DSM …, UniProt B3TLD6))
T1 chain: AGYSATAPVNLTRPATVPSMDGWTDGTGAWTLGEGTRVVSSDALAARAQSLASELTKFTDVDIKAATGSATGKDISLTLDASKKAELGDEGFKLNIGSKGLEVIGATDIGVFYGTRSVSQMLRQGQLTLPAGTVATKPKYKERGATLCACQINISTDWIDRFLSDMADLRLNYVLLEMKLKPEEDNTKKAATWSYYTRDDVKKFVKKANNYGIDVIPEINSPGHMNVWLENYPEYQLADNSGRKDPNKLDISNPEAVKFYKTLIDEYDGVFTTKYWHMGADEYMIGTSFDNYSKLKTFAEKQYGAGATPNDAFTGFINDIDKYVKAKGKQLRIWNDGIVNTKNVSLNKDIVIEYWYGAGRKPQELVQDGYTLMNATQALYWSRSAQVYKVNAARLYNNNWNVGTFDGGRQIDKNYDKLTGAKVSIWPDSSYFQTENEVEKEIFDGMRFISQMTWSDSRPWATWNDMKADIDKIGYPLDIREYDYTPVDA

B1: Construct A (residues 40–528) of B. bifidum lacto-N-biosidase, GH20b-GH20-α (domain or fragment, Bifidobacterium bifidum, UniProt B3TLD6 40-528, looked up)
chain: AGYSATAPVNLTRPATVPSMDGWTDGTGAWTLGEGTRVVSSDALAARAQSLASELTKFTDVDIKAATGSATGKDISLTLDASKKAELGDEGFKLNIGSKGLEVIGATDIGVFYGTRSVSQMLRQGQLTLPAGTVATKPKYKERGATLCACQINISTDWIDRFLSDMADLRLNYVLLEMKLKPEEDNTKKAATWSYYTRDDVKKFVKKANNYGIDVIPEINSPGHMNVWLENYPEYQLADNSGRKDPNKLDISNPEAVKFYKTLIDEYDGVFTTKYWHMGADEYMIGTSFDNYSKLKTFAEKQYGAGATPNDAFTGFINDIDKYVKAKGKQLRIWNDGIVNTKNVSLNKDIVIEYWYGAGRKPQELVQDGYTLMNATQALYWSRSAQVYKVNAARLYNNNWNVGTFDGGRQIDKNYDKLTGAKVSIWPDSSYFQTENEVEKEIFDGMRFISQMTWSDSRPWATWNDMKADIDKIGYPLDIREYDYTPVDA
notes: Lacto-N-biosidase (LnbB), Bifidobacterium bifidum, residues 40-528 (GH20b and GH20 domains with the extra α-helix); synthetic codon-optimised gene in pET28a+ (NdeI/Bpu1102); Mainly dimeric in solution by gel filtration; theoretical mass 57 kDa; also called GH20b-GH20-α construct; source: E. coli BL21 (DE3) star, purified (Ni2+ HiTrap chelating column, Superdex 200)

Key:
[1] = target: the molecule itself; assay: SEC; single purified proteins on XK16/60 Superdex 200 in buffer A (Na2HPO4 20 mM, NaCl 150 mM, pH 7.5)
[2] = target: B1; assay: cell-based or functional assay
[3] = target: T1, Construct A (residues 40–528) of B. …; assay: SEC co-elution with SDS-PAGE, plus activity complementation assay

Binder	stoichiometry N [1]	hydrolytic activity on p-nitrophenyl β-lacto-N-bioside of 50 nM construct A with 25 nM-500 nM construct F (pH 4.5, 30°C), relative to the full length enzyme; levels off at a molar ratio of 1:6 [2] [%]	binding result [3]
B1	2	–	–
Construct F (546–776) of B. bifidum lacto-N-biosidase, the single lectin domain (domain or fragment, Bifidobacterium bifidum, UniProt B3TLD6 546-776, looked up) LITTPDGYYQMKDTVSGKCLALFTGSKHLDVVTQVGARPELRNCADVSVGQDQRNTANERNTQKWQIRADKDGKYTISPALTQQRLAIATGNEQNIDLETHRPAAGTVAQFPADLVSDNALFTLTGHMGMSATVDSKTVNPASPSKITVKVRAASNANTGDVTVTPVVPEGWEIKPGSVSLKSIPAGKAAIAYFNVVNTTGTGDATVQFKLTNTKTGEELGTTSVALTGSL	–	11	binds
